In patent US20130171155A1:

Key:
Assay in all cases: cell-based or functional assay
[1] = target: baboon factor D (in baboon serum or plasma) (baboon)
[2] = target: dog factor D (in dog serum) (dog); settings: scale: times less effective than on human factor D
[3] = target: human factor D purified from human serum (human) (UniProt P00746)
Chain of UniProt P00746 (P00746 26-253 N180D): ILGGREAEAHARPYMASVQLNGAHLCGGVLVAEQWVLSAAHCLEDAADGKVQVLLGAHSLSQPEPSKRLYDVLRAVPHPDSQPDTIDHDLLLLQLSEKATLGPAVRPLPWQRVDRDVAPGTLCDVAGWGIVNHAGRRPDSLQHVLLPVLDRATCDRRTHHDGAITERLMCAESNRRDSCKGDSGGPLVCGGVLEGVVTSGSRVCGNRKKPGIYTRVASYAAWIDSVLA

MAb 166-32 (antibody)
inhibition of alternative complement hemolytic activity of baboon plasma, 18 hours after CPB [1]: 79.3%
neutralization of dog factor D in hemolytic assays [2]: > 10
alternative complement activity (hemolytic assay, unsensitized rabbit RBCs) in paired extracorporeal circuits [3]: 18 µg/mL
alternative pathway hemolytic activity of plasma from extracorporeal circuits (human whole blood) (molar ratio (MAb:factor D)) [3]: 1.5
factor D dependent hemolysis of unsensitized rabbit RBCs (factor D depleted human serum with added factor D) [3]: 0.3 µg/mL
